68 variants from the Human Domainome abundance scans (Beltran et al. 2025) can be followed below.

B1: Gamma-crystallin S, residues 96 to 176; numbered along this chain, P22914 (parent)
chain: IQIFEKGDFSGQMYETTEDCPSIMEQFHMREIHSCKVLEGVWIFYELPNYRGRQYLLDKKEYRKPIDWGAASPAVQSFRRI

± gives the uncertainty stated by the source.

The variants in this data set derive from B1. The experiment in a line: abundance fitness (aPCA) (normalised: wild type 0, dead -1); higher = more abundant; growth selection in yeast, the domain comes from the species named. The settings on record: Homo sapiens.
For the variant IQIFEKGDFSGQMYETTEDCPSIMEDFHMREIHSCKVLEGVWIFYELPNYRGRQYLLDKKEYRKPIDWGAASPAVQSFRRI, the abundance fitness was determined as 0.073 ± 0.11. To IQIFEKGDFSGQMYETTEDCPSIMEYFHMREIHSCKVLEGVWIFYELPNYRGRQYLLDKKEYRKPIDWGAASPAVQSFRRI belongs 0.082 ± 0.11; to IQIFEKGDFSGQMYETTEDCPSIMEKFHMREIHSCKVLEGVWIFYELPNYRGRQYLLDKKEYRKPIDWGAASPAVQSFRRI, -0.079 ± 0.12; to IQIFEKGDFSGQMYETTEDCPSIMEPFHMREIHSCKVLEGVWIFYELPNYRGRQYLLDKKEYRKPIDWGAASPAVQSFRRI, -0.021 ± 0.092. On to IQIFEKGDFSGQMYETTEDCPSIMEAFHMREIHSCKVLEGVWIFYELPNYRGRQYLLDKKEYRKPIDWGAASPAVQSFRRI, for which the abundance fitness is -0.018 ± 0.063. With IQIFEKGDFSGQMYETTEDCPSIMECFHMREIHSCKVLEGVWIFYELPNYRGRQYLLDKKEYRKPIDWGAASPAVQSFRRI the figure was -0.123 ± 0.097; with IQIFEKGDFSGQMYETTEDCPSIMERFHMREIHSCKVLEGVWIFYELPNYRGRQYLLDKKEYRKPIDWGAASPAVQSFRRI, 0.009 ± 0.041. To IQIFEKGDFSGQMYETTEDCPSIMEWFHMREIHSCKVLEGVWIFYELPNYRGRQYLLDKKEYRKPIDWGAASPAVQSFRRI belongs 0 ± 0.061. In the case of IQIFEKGDFSGQMYETTEDCPSIMEMFHMREIHSCKVLEGVWIFYELPNYRGRQYLLDKKEYRKPIDWGAASPAVQSFRRI, the abundance fitness is -0.04 ± 0.087. Consider IQIFEKGDFSGQMYETTEDCPSIMEGFHMREIHSCKVLEGVWIFYELPNYRGRQYLLDKKEYRKPIDWGAASPAVQSFRRI, for which the abundance fitness is 0.044 ± 0.051. To IQIFEKGDFSGQMYETTEDCPSIMETFHMREIHSCKVLEGVWIFYELPNYRGRQYLLDKKEYRKPIDWGAASPAVQSFRRI belongs -0.047 ± 0.088; to IQIFEKGDFSGQMYETTEDCPSIMESFHMREIHSCKVLEGVWIFYELPNYRGRQYLLDKKEYRKPIDWGAASPAVQSFRRI, -0.035 ± 0.052; to IQIFEKGDFSGQMYETTEDCPSIMEEFHMREIHSCKVLEGVWIFYELPNYRGRQYLLDKKEYRKPIDWGAASPAVQSFRRI, 0.079 ± 0.089.

IQIFEKGDFSGQMYETTEDCPSIMEIFHMREIHSCKVLEGVWIFYELPNYRGRQYLLDKKEYRKPIDWGAASPAVQSFRRI: the abundance fitness was -0.065 ± 0.15. To IQIFEKGDFSGQMYETTEDCPSIMEFFHMREIHSCKVLEGVWIFYELPNYRGRQYLLDKKEYRKPIDWGAASPAVQSFRRI belongs -0.033 ± 0.071; to IQIFEKGDFSGQMYETTEDCPSIMEVFHMREIHSCKVLEGVWIFYELPNYRGRQYLLDKKEYRKPIDWGAASPAVQSFRRI, 0.009 ± 0.059. With IQIFEKGDFSGQMYETTEDCPSQMEQFHMREIHSCKVLEGVWIFYELPNYRGRQYLLDKKEYRKPIDWGAASPAVQSFRRI the figure was -0.398 ± 0.18; with IQIFEKGDFSGQMYETTEDCPSHMEQFHMREIHSCKVLEGVWIFYELPNYRGRQYLLDKKEYRKPIDWGAASPAVQSFRRI, -0.201 ± 0.16. With IQIFEKGDFSGQMYETTEDCPSSMEQFHMREIHSCKVLEGVWIFYELPNYRGRQYLLDKKEYRKPIDWGAASPAVQSFRRI the figure was -0.038 ± 0.085. Take IQIFEKGDFSGQMYETTEDCPSWMEQFHMREIHSCKVLEGVWIFYELPNYRGRQYLLDKKEYRKPIDWGAASPAVQSFRRI: the abundance fitness was determined as 0.014 ± 0.11. To IQIFEKGDFSGQMYETTEDCPSEMEQFHMREIHSCKVLEGVWIFYELPNYRGRQYLLDKKEYRKPIDWGAASPAVQSFRRI belongs -0.945 ± 0.24; to IQIFEKGDFSGQMYETTEDCPSPMEQFHMREIHSCKVLEGVWIFYELPNYRGRQYLLDKKEYRKPIDWGAASPAVQSFRRI, 0.02 ± 0.093.

With IQIFEKGDFSGQMYETTEDCPSFMEQFHMREIHSCKVLEGVWIFYELPNYRGRQYLLDKKEYRKPIDWGAASPAVQSFRRI, the abundance fitness came to 0.001 ± 0.072. With IQIFEKGDFSGQMYETTEDCPSCMEQFHMREIHSCKVLEGVWIFYELPNYRGRQYLLDKKEYRKPIDWGAASPAVQSFRRI the figure was -0.031 ± 0.11; with IQIFEKGDFSGQMYETTEDCPSYMEQFHMREIHSCKVLEGVWIFYELPNYRGRQYLLDKKEYRKPIDWGAASPAVQSFRRI, 0.024 ± 0.088. With IQIFEKGDFSGQMYETTEDCPSVMEQFHMREIHSCKVLEGVWIFYELPNYRGRQYLLDKKEYRKPIDWGAASPAVQSFRRI the figure was 0.004 ± 0.048.

Consider IQIFEKGDFSGQMYETTEDCPSGMEQFHMREIHSCKVLEGVWIFYELPNYRGRQYLLDKKEYRKPIDWGAASPAVQSFRRI, for which the abundance fitness is -0.142 ± 0.045. On to IQIFEKGDFSGQMYETTEDCPSMMEQFHMREIHSCKVLEGVWIFYELPNYRGRQYLLDKKEYRKPIDWGAASPAVQSFRRI, for which the abundance fitness is -0.041 ± 0.17. To IQIFEKGDFSGQMYETTEDCPSRMEQFHMREIHSCKVLEGVWIFYELPNYRGRQYLLDKKEYRKPIDWGAASPAVQSFRRI belongs -0.28 ± 0.077; to IQIFEKGDFSGQMYETTEDCPSAMEQFHMREIHSCKVLEGVWIFYELPNYRGRQYLLDKKEYRKPIDWGAASPAVQSFRRI, 0 ± 0.055.

Turning to IQIFEKGDFSGQMYETTEDCPSLMEQFHMREIHSCKVLEGVWIFYELPNYRGRQYLLDKKEYRKPIDWGAASPAVQSFRRI, the abundance fitness is -0.152 ± 0.089. To IQIFEKGDFSGQMYETTEDCPSNMEQFHMREIHSCKVLEGVWIFYELPNYRGRQYLLDKKEYRKPIDWGAASPAVQSFRRI belongs -0.041 ± 0.08. To IQIFEKGDFSGQMYETTEDCPSTMEQFHMREIHSCKVLEGVWIFYELPNYRGRQYLLDKKEYRKPIDWGAASPAVQSFRRI belongs -0.033 ± 0.16; to IQIFEKGDFSGQMYETTEDCPSKMEQFHMREIHSCKVLEGVWIFYELPNYRGRQYLLDKKEYRKPIDWGAASPAVQSFRRI, -0.588 ± 0.083. To IQIFEKGDFSGQMYETTEDCPSILEQFHMREIHSCKVLEGVWIFYELPNYRGRQYLLDKKEYRKPIDWGAASPAVQSFRRI belongs 0.002 ± 0.06. Take IQIFEKGDFSGQMYETTEDCPSIREQFHMREIHSCKVLEGVWIFYELPNYRGRQYLLDKKEYRKPIDWGAASPAVQSFRRI: the abundance fitness is -0.005 ± 0.056. With IQIFEKGDFSGQMYETTEDCPSIQEQFHMREIHSCKVLEGVWIFYELPNYRGRQYLLDKKEYRKPIDWGAASPAVQSFRRI the figure was -0.097 ± 0.098.

As for IQIFEKGDFSGQMYETTEDCPSICEQFHMREIHSCKVLEGVWIFYELPNYRGRQYLLDKKEYRKPIDWGAASPAVQSFRRI, the abundance fitness was -0.016 ± 0.16.

For IQIFEKGDFSGQMYETTEDCPSIWEQFHMREIHSCKVLEGVWIFYELPNYRGRQYLLDKKEYRKPIDWGAASPAVQSFRRI, the abundance fitness worked out at 0.115 ± 0.06. To IQIFEKGDFSGQMYETTEDCPSITEQFHMREIHSCKVLEGVWIFYELPNYRGRQYLLDKKEYRKPIDWGAASPAVQSFRRI belongs 0.007 ± 0.06; to IQIFEKGDFSGQMYETTEDCPSIYEQFHMREIHSCKVLEGVWIFYELPNYRGRQYLLDKKEYRKPIDWGAASPAVQSFRRI, -0.095 ± 0.14. To IQIFEKGDFSGQMYETTEDCPSIHEQFHMREIHSCKVLEGVWIFYELPNYRGRQYLLDKKEYRKPIDWGAASPAVQSFRRI belongs -0.099 ± 0.17; to IQIFEKGDFSGQMYETTEDCPSIIEQFHMREIHSCKVLEGVWIFYELPNYRGRQYLLDKKEYRKPIDWGAASPAVQSFRRI, -0.017 ± 0.11; to IQIFEKGDFSGQMYETTEDCPSIAEQFHMREIHSCKVLEGVWIFYELPNYRGRQYLLDKKEYRKPIDWGAASPAVQSFRRI, -0.054 ± 0.059. With IQIFEKGDFSGQMYETTEDCPSIEEQFHMREIHSCKVLEGVWIFYELPNYRGRQYLLDKKEYRKPIDWGAASPAVQSFRRI, the abundance fitness was -0.052 ± 0.078. To IQIFEKGDFSGQMYETTEDCPSIDEQFHMREIHSCKVLEGVWIFYELPNYRGRQYLLDKKEYRKPIDWGAASPAVQSFRRI belongs -0.11 ± 0.16; to IQIFEKGDFSGQMYETTEDCPSIKEQFHMREIHSCKVLEGVWIFYELPNYRGRQYLLDKKEYRKPIDWGAASPAVQSFRRI, 0.335 ± 0.12. On to IQIFEKGDFSGQMYETTEDCPSIPEQFHMREIHSCKVLEGVWIFYELPNYRGRQYLLDKKEYRKPIDWGAASPAVQSFRRI, for which the abundance fitness is -0.099 ± 0.069. With IQIFEKGDFSGQMYETTEDCPSISEQFHMREIHSCKVLEGVWIFYELPNYRGRQYLLDKKEYRKPIDWGAASPAVQSFRRI the figure was -0.088 ± 0.074. On to IQIFEKGDFSGQMYETTEDCPSIMEQFAMREIHSCKVLEGVWIFYELPNYRGRQYLLDKKEYRKPIDWGAASPAVQSFRRI, for which the abundance fitness is 0.045 ± 0.058. Turning to IQIFEKGDFSGQMYETTEDCPSIMWQFHMREIHSCKVLEGVWIFYELPNYRGRQYLLDKKEYRKPIDWGAASPAVQSFRRI, the abundance fitness is -0.434 ± 0.35. To IQIFEKGDFSGQMYETTEDCPSIMEQMHMREIHSCKVLEGVWIFYELPNYRGRQYLLDKKEYRKPIDWGAASPAVQSFRRI belongs 0.014 ± 0.068; to IQIFEKGDFSGQMYETTEDCPSIMEQKHMREIHSCKVLEGVWIFYELPNYRGRQYLLDKKEYRKPIDWGAASPAVQSFRRI, -0.018 ± 0.15; to IQIFEKGDFSGQMYETTEDCPSIMEQSHMREIHSCKVLEGVWIFYELPNYRGRQYLLDKKEYRKPIDWGAASPAVQSFRRI, 0.006 ± 0.047.

Regarding IQIFEKGDFSGQMYETTEDCPSIMEQNHMREIHSCKVLEGVWIFYELPNYRGRQYLLDKKEYRKPIDWGAASPAVQSFRRI, the abundance fitness was -0.141 ± 0.14. With IQIFEKGDFSGQMYETTEDCPSIMEQGHMREIHSCKVLEGVWIFYELPNYRGRQYLLDKKEYRKPIDWGAASPAVQSFRRI the figure was 0.017 ± 0.04; with IQIFEKGDFSGQMYETTEDCPSIMEQWHMREIHSCKVLEGVWIFYELPNYRGRQYLLDKKEYRKPIDWGAASPAVQSFRRI, 0.03 ± 0.059. With IQIFEKGDFSGQMYETTEDCPSIMEQPHMREIHSCKVLEGVWIFYELPNYRGRQYLLDKKEYRKPIDWGAASPAVQSFRRI the figure was -0.001 ± 0.081; with IQIFEKGDFSGQMYETTEDCPSIMEQYHMREIHSCKVLEGVWIFYELPNYRGRQYLLDKKEYRKPIDWGAASPAVQSFRRI, -0.011 ± 0.15; with IQIFEKGDFSGQMYETTEDCPSIMEQDHMREIHSCKVLEGVWIFYELPNYRGRQYLLDKKEYRKPIDWGAASPAVQSFRRI, -0.156 ± 0.13. To IQIFEKGDFSGQMYETTEDCPSIMEQQHMREIHSCKVLEGVWIFYELPNYRGRQYLLDKKEYRKPIDWGAASPAVQSFRRI belongs 0.021 ± 0.067; to IQIFEKGDFSGQMYETTEDCPSIMEQCHMREIHSCKVLEGVWIFYELPNYRGRQYLLDKKEYRKPIDWGAASPAVQSFRRI, -0.094 ± 0.085; to IQIFEKGDFSGQMYETTEDCPSIMEQVHMREIHSCKVLEGVWIFYELPNYRGRQYLLDKKEYRKPIDWGAASPAVQSFRRI, 0.014 ± 0.053. With IQIFEKGDFSGQMYETTEDCPSIMEQIHMREIHSCKVLEGVWIFYELPNYRGRQYLLDKKEYRKPIDWGAASPAVQSFRRI, the abundance fitness worked out at 0.104 ± 0.094. With IQIFEKGDFSGQMYETTEDCPSIMEQAHMREIHSCKVLEGVWIFYELPNYRGRQYLLDKKEYRKPIDWGAASPAVQSFRRI the figure was 0.033 ± 0.047.

In the case of IQIFEKGDFSGQMYETTEDCPSIMEQLHMREIHSCKVLEGVWIFYELPNYRGRQYLLDKKEYRKPIDWGAASPAVQSFRRI, the abundance fitness is 0.015 ± 0.049. With IQIFEKGDFSGQMYETTEDCPSIMEQRHMREIHSCKVLEGVWIFYELPNYRGRQYLLDKKEYRKPIDWGAASPAVQSFRRI, the abundance fitness is 0.02 ± 0.042. Consider IQIFEKGDFSGQMYETTEDCPSIMEQHHMREIHSCKVLEGVWIFYELPNYRGRQYLLDKKEYRKPIDWGAASPAVQSFRRI, for which the abundance fitness came to 0.101 ± 0.24.
